According to patent US20180142261A1:

Target: mouse CD4 (mouse) (UniProt P06332)
Assay: flow cytometry, primary C57BL/6 splenocytes ex vivo, siCy5 signal (FIG. 4B)

UniProt P06332, sequence (P06332 27-457): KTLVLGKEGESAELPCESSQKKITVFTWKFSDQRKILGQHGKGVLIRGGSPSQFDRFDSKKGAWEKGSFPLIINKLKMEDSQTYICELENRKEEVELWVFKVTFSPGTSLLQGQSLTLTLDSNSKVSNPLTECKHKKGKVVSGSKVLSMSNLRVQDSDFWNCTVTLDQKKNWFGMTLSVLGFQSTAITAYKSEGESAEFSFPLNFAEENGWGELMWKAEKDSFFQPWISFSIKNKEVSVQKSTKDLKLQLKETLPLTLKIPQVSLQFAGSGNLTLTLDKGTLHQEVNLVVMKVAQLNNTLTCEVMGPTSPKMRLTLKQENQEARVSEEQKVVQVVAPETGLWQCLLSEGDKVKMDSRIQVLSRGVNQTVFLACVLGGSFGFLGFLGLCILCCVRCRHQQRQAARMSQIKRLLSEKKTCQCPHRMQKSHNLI

| percent of CD4+ cells that bind | Substance |
| --- | --- |
| 1% | isoLNPs: lipid nanoparticles coated with an isotype control mAb (antibody) |
| 100% | tLNPs: lipid nanoparticles (siRNA-encapsulating) conjugated to DTT-reduced anti-mouse CD4 monoclonal antibody (clone YTS.177) |
